The target in test [1] is T1, hCDH17-his (full length extracellular domain of human CDH17, Q23-M787, his tag at the C-terminal) (human, UniProt Q12864 23-787).
T1 construct: Limits of the construct (UniProt Q12864, Q23-M787, C-terminal his tag); also called human CDH17-his protein; human CDH17 protein
T1 sequence: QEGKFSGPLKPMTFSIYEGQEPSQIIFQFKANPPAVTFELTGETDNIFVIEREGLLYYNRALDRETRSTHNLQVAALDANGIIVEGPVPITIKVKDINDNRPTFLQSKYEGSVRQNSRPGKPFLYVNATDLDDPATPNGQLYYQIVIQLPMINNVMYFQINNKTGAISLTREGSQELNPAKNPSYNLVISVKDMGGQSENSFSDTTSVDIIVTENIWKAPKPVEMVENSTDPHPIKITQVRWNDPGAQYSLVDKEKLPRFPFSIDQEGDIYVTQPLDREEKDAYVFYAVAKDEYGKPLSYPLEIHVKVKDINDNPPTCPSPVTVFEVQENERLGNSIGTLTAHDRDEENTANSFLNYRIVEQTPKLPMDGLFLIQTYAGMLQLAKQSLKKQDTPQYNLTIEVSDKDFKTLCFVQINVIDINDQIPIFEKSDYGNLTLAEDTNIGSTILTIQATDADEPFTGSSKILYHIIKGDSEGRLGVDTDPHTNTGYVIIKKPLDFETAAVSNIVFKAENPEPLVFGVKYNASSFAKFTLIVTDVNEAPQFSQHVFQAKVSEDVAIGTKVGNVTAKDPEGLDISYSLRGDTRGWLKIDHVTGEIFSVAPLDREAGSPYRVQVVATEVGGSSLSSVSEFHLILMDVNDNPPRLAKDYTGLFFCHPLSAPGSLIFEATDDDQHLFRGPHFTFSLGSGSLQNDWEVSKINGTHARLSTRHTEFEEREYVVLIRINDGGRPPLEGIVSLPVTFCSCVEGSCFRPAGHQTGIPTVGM
The test is described as follows: SPR (Biacore 8K), antibody captured on Protein A chip, hCDH17-his injected. For orientation: Surface plasmon resonance follows binding to a sensor surface in real time, without labels.

Test [2] has as its target T2, human CDH17, full length, expressed on cells (HEK293-hCDH17); AsPC-1, HCT-8, AGS, LoVo, KATO III, HT-29 tumor … (human, UniProt Q12864 23-832).
T2 construct: also called human CDH17 expressed on tumor cells
T2 sequence: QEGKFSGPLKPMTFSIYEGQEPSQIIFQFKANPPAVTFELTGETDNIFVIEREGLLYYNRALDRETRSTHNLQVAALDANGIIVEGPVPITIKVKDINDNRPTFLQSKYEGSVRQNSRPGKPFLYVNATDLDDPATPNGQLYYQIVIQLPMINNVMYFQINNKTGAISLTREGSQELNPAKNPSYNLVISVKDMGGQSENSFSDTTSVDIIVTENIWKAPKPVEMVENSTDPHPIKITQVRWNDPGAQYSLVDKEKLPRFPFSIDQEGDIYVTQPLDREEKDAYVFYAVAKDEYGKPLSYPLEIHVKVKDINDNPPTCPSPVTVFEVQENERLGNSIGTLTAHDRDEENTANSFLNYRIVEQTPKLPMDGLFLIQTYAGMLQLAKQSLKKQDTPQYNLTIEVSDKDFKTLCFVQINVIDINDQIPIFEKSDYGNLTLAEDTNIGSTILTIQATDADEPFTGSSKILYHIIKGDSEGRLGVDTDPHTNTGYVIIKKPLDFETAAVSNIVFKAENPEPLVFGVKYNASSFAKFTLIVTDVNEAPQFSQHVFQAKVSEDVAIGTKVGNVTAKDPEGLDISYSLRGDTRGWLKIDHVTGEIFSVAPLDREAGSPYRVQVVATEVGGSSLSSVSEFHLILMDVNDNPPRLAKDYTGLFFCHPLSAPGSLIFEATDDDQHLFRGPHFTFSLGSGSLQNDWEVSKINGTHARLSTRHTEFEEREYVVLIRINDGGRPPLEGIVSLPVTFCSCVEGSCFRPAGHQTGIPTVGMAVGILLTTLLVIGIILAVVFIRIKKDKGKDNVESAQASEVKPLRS
The test is described as follows: flow cytometry, HEK293-hCDH17 cells. In general terms: Flow cytometry measures light scatter and fluorescence of single cells or particles in a stream.

The target in test [3] is T1, hCDH17-his (full length extracellular …). Description: SPR (Biacore 8K), two doses, antibody captured on Protein A chip, hCDH17-his at 25 nM and 100 nM.

B1: 61C7F12-z3 (antibody, V domains shown)
VH: EVQLVESGGGLVKPGGSLRLSCAASGFTFSSYAMSWVRQAPGKGLEWVSTINIGGSYTYYPDSVKGRFTISRDNAKNSLYLQMNSLRAEDTAVYYCARQEGRYWYFDVWGQGTTVTVSS
VL: DIVLTQSPSFLSASVGDRVTITCTASSSVSSSYLHWYQQKPGKSPKLWIYSTSNLASGVPSRFSGSGSGTEYSLTISSLQPEDFATYYCHQFHRSPYTFGGGTKVEIK
notes: Humanized, human IgG1 constant region; also called 61C7F12 HU-VH1-0 / HU-VL1-2
Take B1: the binding result in test [1] and in test [2] was “binds” each time.

B2: 61C7F12-z9 (antibody, V domains shown)
VH: EVQLVESGGGLVKPGGSLRLSCAASGFTFSSYAMSWVRQAPGKGLEWVSTINIGGSYTYYPDSVKGRFTISRDNAKNSLYLQMNSLRAEDTAVYYCARQEGRYWYFDVWGQGTTVTVSS
VL: EIVLTQSPGTLSLSPGERATLSCTASSSVSSSYLHWYQQKPGQAPRLLIYSTSNLASGIPDRFSGSGSGTDFTLTISRLEPEDFAVYYCHQFHRSPYTFGGGTKVEIK
notes: Humanized, human IgG1 constant region; also called 61C7F12 HU-VH1-0 / HU-VL2-0
As for B2, the binding result in test [1] and in test [2] was “binds” throughout.

B3: 61C7F12-z8 (antibody, V domains shown)
VH: EVQLVESGGGLVKPGGSLRLSCAASGFTFSSYAMSWVRQAPGKGLEWVATINIGGSYTYYPDSVKGRFTISRDNAKNSLYLQMNSLRAEDTAVYYCARQEGRYWYFDVWGQGTTVTVSS
VL: QIVLTQSPSFLSASVGDRVTITCTASSSVSSSYLHWYQQKPGKSPKLWIYSTSNLASGVPSRFSGSGSGTSYSLTISSLQPEDFATYYCHQFHRSPYTFGGGTKVEIK
notes: Humanized, human IgG1 constant region; also called 61C7F12 HU-VH1-1 / HU-VL1-3
Regarding B3, the binding result in test [1] and in test [2] was “binds” in each case.

B4: 61C7F12-z10 (antibody, V domains shown)
VH: EVQLVESGGGLVKPGGSLRLSCAASGFTFSSYAMSWVRQAPGKGLEWVATINIGGSYTYYPDSVKGRFTISRDNAKNSLYLQMNSLRAEDTAVYYCARQEGRYWYFDVWGQGTTVTVSS
VL: EIVLTQSPGTLSLSPGERATLSCTASSSVSSSYLHWYQQKPGQAPRLLIYSTSNLASGIPDRFSGSGSGTDFTLTISRLEPEDFAVYYCHQFHRSPYTFGGGTKVEIK
notes: Humanized, human IgG1 constant region; also called 61C7F12 HU-VH1-1 / HU-VL2-0
Consider B4, for which the binding result in test [1] and in test [2] was “binds” in each case.

B5: 29H8D3-z12p1 (antibody, V domains shown)
VH: QVQLVQSGAEVKKPGASVKVSCKASGYTFTDHTIHWMRQRPGQGLEWIGYIYPREGYTKYNEKFKDRATLTADTSTSTAYMELRSLRSDDTAVYYCARFYYGYWYFDVWGQGTTVTVSS
VL: DIVMTQSPLSLPVTPGEPASISCRSSKSLLRSNGNTYLYWFLQKPGQSPQVLIYRMSNLASGVPDRFSGSGSGTDFTLKISRVEAEDVGVYYCMQHLEYPFTFGQGTKLEIK
notes: PTM-removed variant of 29H8D3-z12
For the molecule B5, the binding result in test [3] was “binds”.

B6: 29H8D3-z12p14 (antibody, V domains shown)
VH: QVQLVQSGAEVKKPGASVKVSCKASGYTFTDHTIHWMRQRPGQGLEWIGYIYPRDGYTKYNEKFKDRATLTADTSTSTAYMELRSLRSDDTAVYYCARFYYGYWYFDVWGQGTTVTVSS
VL: DIVMTQSPLSLPVTPGEPASISCRSSKSLLRSNGNTYLYWFLQKPGQSPQVLIYRMSNLASGVPDRFSGSGSGTDFTLKISRVEAEDVGVYYCTQHLEYPFTFGQGTKLEIK
notes: PTM-removed variant of 29H8D3-z12; VH is that of 29H8D3-z12
B6: in test [3], the binding result is reported as “binds”.

B7: 29H8D3-z12p21 (antibody, V domains shown)
VH: QVQLVQSGAEVKKPGASVKVSCKASGYTFTDHTIHWMRQRPGQGLEWIGYIYPRDGYTKYNEKFKDRATLTADTSTSTAYMELRSLRSDDTAVYYCARFYYGYWYFDVWGQGTTVTVSS
VL: DIVMTQSPLSLPVTPGEPASISCRSSKSLLRSNGNTYLYWFLQKPGQSPQVLIYRMSNLASGVPDRFSGSGSGTDFTLKISRVEAEDVGVYYCIQHLEYPFTFGQGTKLEIK
notes: as for B6
In the case of B7, in test [3], the binding result is “binds”.

B8: 29H8D3-z12p13 (antibody, V domains shown)
VH: QVQLVQSGAEVKKPGASVKVSCKASGYTFTDHTIHWMRQRPGQGLEWIGYIYPRDGYTKYNEKFKDRATLTADTSTSTAYMELRSLRSDDTAVYYCARFYYGYWYFDVWGQGTTVTVSS
VL: DIVMTQSPLSLPVTPGEPASISCRSSKSLLRSNGNTYLYWFLQKPGQSPQVLIYRMSNLASGVPDRFSGSGSGTDFTLKISRVEAEDVGVYYCSQHLEYPFTFGQGTKLEIK
notes: as for B6
For B8, the binding result in test [3] is “binds”.

B9: 29H8D3-z12p10 (antibody, V domains shown)
VH: QVQLVQSGAEVKKPGASVKVSCKASGYTFTDHTIHWMRQRPGQGLEWIGYIYPRDGYTKYNEKFKDRATLTADTSTSTAYMELRSLRSDDTAVYYCARFYYGYWYFDVWGQGTTVTVSS
VL: DIVMTQSPLSLPVTPGEPASISCRSSKSLLRSNGNTYLYWFLQKPGQSPQVLIYRMSNLASGVPDRFSGSGSGTDFTLKISRVEAEDVGVYYCKQHLEYPFTFGQGTKLEIK
notes: as for B6
B9: in test [3], the binding result was “binds”.

B10: 29H8D3-z12p16 (antibody, V domains shown)
VH: QVQLVQSGAEVKKPGASVKVSCKASGYTFTDHTIHWMRQRPGQGLEWIGYIYPRDGYTKYNEKFKDRATLTADTSTSTAYMELRSLRSDDTAVYYCARFYYGYWYFDVWGQGTTVTVSS
VL: DIVMTQSPLSLPVTPGEPASISCRSSKSLLRSNGNTYLYWFLQKPGQSPQVLIYRMSNLASGVPDRFSGSGSGTDFTLKISRVEAEDVGVYYCQQHLEYPFTFGQGTKLEIK
notes: as for B6
Turning to B10, the binding result in test [3] is on record as “binds”.

B11: 29H8D3-z12p17 (antibody, V domains shown)
VH: QVQLVQSGAEVKKPGASVKVSCKASGYTFTDHTIHWMRQRPGQGLEWIGYIYPRDGYTKYNEKFKDRATLTADTSTSTAYMELRSLRSDDTAVYYCARFYYGYWYFDVWGQGTTVTVSS
VL: DIVMTQSPLSLPVTPGEPASISCRSSKSLLRSNGNTYLYWFLQKPGQSPQVLIYRMSNLASGVPDRFSGSGSGTDFTLKISRVEAEDVGVYYCGQHLEYPFTFGQGTKLEIK
notes: as for B6
Take B11: the binding result in test [3] is reported as “binds”.

B12: 29H8D3-z12p15 (antibody, V domains shown)
VH: QVQLVQSGAEVKKPGASVKVSCKASGYTFTDHTIHWMRQRPGQGLEWIGYIYPRDGYTKYNEKFKDRATLTADTSTSTAYMELRSLRSDDTAVYYCARFYYGYWYFDVWGQGTTVTVSS
VL: DIVMTQSPLSLPVTPGEPASISCRSSKSLLRSNGNTYLYWFLQKPGQSPQVLIYRMSNLASGVPDRFSGSGSGTDFTLKISRVEAEDVGVYYCNQHLEYPFTFGQGTKLEIK
notes: as for B6
For B12, the binding result in test [3] is “binds”.

B13: 29H8D3-z12p9 (antibody, V domains shown)
VH: QVQLVQSGAEVKKPGASVKVSCKASGYTFTDHTIHWMRQRPGQGLEWIGYIYPRDGYTKYNEKFKDRATLTADTSTSTAYMELRSLRSDDTAVYYCARFYYGYWYFDVWGQGTTVTVSS
VL: DIVMTQSPLSLPVTPGEPASISCRSSKSLLRSNGNTYLYWFLQKPGQSPQVLIYRMSNLASGVPDRFSGSGSGTDFTLKISRVEAEDVGVYYCHQHLEYPFTFGQGTKLEIK
notes: as for B5
Consider B13, for which, in test [3], the binding result was “binds”.

B14: 69E3H11-z12 (antibody, V domains shown)
VH: QVQLVQSGAEVKKPGASVKVSCKASGYTFTTYWMHWVKQAPGQRLEWIGEIDPSDSYANYNQKFKGKATLTVDKSASTAYMELSSLRSEDTAVYYCALYYGYGDWGQGTTVTVSS
VL: EIVLTQSPGTLSLSPGERATLSCSVSSSISSIHLHWYQQKPGQAPRLLIYRTSNLASGIPDRFSGSGSGTDFTLTISRLEPEDFAVYYCQQGSNLPLTFGQGTRLEIK
notes: Humanized, human IgG1 constant region; also called 69E3H11 HU-VH1-3 / HU-VL2-0
Regarding B14, the binding result in test [1] and in test [2] was “binds” each time.

(Values after patent EP4806514A2 (Lepu Biopharma Co., Ltd., dated 2025).)
